Blank lines part the entries; values can stand above or below the substance they belong to. Ends that are not written are not given here. * marks the point of attachment. Biotin = O=C1N[C@H]2[C@H](CS[C@H]2CCCCC(=O)*)N1
Experiments:
Test in all cases: G' assay (10 uM PL peptide), results of TABLE 7 and TABLE 12
Format in all cases: binding
[1] = target: T1, PDZ protein (GST-PDZ fusion) (Homo sapiens, UniProt Q12923); conditions: PDZ PTPL-1, PDZ Domain 4
T1 construct: made in house; host or cells: E. coli (DH5alpha, BL21 or JM109)
Excerpt: (§1) Each page of TABLE 7 and 12 includes seven columns. The columns in each table are numbered from left to right such that the left-most column in each table is column 1 and the right-most column in each table is column 7. Thus, the first column in each table is labeled “AVC ID”; this column simply lists an internal reference number used to refer to the carboxyl-terminal amino acids of the PL proteins listed in the second column. […] All PL peptides were biotinylated at the amino-terminus and the sequences of these PL peptides are presented in TABLE 8 (see end of specification).
(§2) This column provides the gene name for the PDZ portion of the GST-PDZ fusion that interacts with the PDZ-ligand to the left. For PDZ domain-containing proteins with multiple domains, the domain number is listed to the right of the PDZ (i.e., in column 5 labeled “PDZ Domain”), and indicates the PDZ domain number when numbered from the amino-terminus to the carboxy-terminus.
(§3) The third column labeled “Peptide Optimal Concentration” in the tables is a number reflective of the binding interaction between the PL protein and PDZ protein. […] The column labeled “Protein Optimal Concentration” refers to the protein concentration used to assay PL interaction (in ug/ml); a ‘0’ is indicative of 5 ug/ml protein concentration; any other value represents the concentration (in ug/ml) used to determine the dissociation constant for a given interaction.
(§4) Finally, the seventh column labeled “Classification” is another measure of the level of binding. In particular, it provides an absorbance value at 450 nm which indicates the amount of PL peptide bound to the PDZ protein. The following numerical values have the following meanings: ‘1’—A450 nm 0-1; ‘2’—A450 nm 1-2; ‘3’—A450 nm 2-3; ‘4’—A450 nm 3-4; ‘5’—A450 nm of 4 more than 2× repeated; ‘0’—A450 nm 0, i.e., not found to interact. Thus, higher numbers indicate stronger interactions.
(§5) For convenience, the assay conditions described in this section are referred to as the “G′ assay” and the “G″ assay,” with the specific conditions described in the preceding section on G assays being referred to as the “G^0 assay.” The “G′ assay” is identical to the “G^0 assay” except at step (2) the peptide concentration is 10 uM instead of 20 uM.

[2] = target: T2, PDZ protein (GST-PDZ fusion) (Homo sapiens, UniProt Q02410); conditions: PDZ Mint 1, PDZ Domain 1, 2
T2 construct: made in house; host or cells: E. coli (DH5alpha, BL21 or JM109)
T2 sequence (Q02410 1-837): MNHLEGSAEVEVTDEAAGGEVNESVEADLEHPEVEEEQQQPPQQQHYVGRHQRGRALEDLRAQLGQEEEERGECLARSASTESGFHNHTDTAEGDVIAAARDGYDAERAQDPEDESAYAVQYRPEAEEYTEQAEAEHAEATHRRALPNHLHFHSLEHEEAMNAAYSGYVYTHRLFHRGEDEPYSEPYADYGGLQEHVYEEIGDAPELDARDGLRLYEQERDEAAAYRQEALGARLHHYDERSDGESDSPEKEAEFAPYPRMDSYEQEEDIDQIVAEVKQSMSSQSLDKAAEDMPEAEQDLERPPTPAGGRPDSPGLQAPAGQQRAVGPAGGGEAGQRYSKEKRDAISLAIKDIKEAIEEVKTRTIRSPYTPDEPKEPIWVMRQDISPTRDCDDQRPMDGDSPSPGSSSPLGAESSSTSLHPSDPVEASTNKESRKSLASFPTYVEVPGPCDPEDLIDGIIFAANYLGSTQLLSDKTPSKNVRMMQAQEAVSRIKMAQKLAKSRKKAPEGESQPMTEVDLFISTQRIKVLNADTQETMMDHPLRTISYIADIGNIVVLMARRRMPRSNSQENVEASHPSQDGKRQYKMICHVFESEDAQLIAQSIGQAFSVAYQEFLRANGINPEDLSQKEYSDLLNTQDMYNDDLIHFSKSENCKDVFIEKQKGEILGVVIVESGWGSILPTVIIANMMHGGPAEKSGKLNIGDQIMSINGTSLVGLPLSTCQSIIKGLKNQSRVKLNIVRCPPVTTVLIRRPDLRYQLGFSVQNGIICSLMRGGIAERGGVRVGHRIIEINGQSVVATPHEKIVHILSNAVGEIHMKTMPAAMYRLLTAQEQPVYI
Excerpt: as §1, §2, §3, §4, §5

[3] = target: T3, PDZ protein (GST-PDZ fusion) (Homo sapiens, UniProt Q8NI35); conditions: PDZ INADL, PDZ Domain 8
T3 construct: made in house; host or cells: E. coli (DH5alpha, BL21 or JM109)
Excerpt: as §1, §2, §3, §4, §5

[4] = target: T4, PDZ protein (GST-PDZ fusion) (Homo sapiens, UniProt O75970); conditions: PDZ MUPP-1, PDZ Domain 10
T4 construct: made in house; host or cells: E. coli (DH5alpha, BL21 or JM109)
Excerpt: as §1, §2, §3, §4, §5

[5] = target: T5, PDZ protein (GST-PDZ fusion) (Homo sapiens, UniProt Q5TCQ9); conditions: PDZ KIAA1634, PDZ Domain 1
T5 construct: made in house; host or cells: E. coli (DH5alpha, BL21 or JM109)
T5 sequence (Q5TCQ9 1-1481): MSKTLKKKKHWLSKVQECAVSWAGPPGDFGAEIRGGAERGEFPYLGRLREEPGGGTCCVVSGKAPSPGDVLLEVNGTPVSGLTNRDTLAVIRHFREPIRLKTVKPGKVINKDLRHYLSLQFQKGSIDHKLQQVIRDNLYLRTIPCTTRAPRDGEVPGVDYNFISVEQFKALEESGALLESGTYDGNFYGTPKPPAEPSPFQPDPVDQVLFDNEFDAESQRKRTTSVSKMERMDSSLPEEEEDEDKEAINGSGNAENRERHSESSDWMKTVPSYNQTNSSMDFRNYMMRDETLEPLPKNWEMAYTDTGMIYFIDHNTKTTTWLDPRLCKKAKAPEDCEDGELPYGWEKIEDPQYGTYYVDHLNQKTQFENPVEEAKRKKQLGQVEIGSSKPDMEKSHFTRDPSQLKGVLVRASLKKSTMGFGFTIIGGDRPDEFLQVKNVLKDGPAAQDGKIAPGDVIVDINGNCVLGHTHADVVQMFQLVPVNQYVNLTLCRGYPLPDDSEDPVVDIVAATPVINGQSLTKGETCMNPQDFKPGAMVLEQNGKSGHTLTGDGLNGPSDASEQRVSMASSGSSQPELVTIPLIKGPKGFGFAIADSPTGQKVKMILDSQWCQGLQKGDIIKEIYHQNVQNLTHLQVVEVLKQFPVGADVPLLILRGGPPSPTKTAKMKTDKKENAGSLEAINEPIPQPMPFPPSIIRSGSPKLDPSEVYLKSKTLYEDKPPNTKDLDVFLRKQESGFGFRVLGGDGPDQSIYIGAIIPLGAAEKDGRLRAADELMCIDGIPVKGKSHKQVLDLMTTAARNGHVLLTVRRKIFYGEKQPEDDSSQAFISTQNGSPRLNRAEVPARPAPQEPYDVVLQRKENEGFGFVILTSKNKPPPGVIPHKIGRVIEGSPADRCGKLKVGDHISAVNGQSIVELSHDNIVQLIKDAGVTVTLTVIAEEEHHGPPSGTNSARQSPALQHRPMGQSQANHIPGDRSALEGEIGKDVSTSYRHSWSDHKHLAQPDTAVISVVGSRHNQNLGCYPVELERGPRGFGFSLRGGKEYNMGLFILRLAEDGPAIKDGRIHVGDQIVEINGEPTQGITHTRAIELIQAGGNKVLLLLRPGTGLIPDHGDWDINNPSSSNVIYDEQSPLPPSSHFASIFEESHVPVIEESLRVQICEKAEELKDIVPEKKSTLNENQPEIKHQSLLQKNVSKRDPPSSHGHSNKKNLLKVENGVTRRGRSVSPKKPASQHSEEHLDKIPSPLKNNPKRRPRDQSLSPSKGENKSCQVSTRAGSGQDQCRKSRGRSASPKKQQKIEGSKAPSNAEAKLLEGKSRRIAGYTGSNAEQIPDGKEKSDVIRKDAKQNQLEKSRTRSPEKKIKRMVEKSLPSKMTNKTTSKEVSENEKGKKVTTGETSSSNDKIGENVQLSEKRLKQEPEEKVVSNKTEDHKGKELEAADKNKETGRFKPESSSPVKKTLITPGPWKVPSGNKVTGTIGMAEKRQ
Excerpt: as §1, §2, §3, §4, §5

[6] = target: T6, PDZ protein (GST-PDZ fusion) (Homo sapiens, UniProt Q12959); conditions: PDZ DLG1, PDZ Domain 1, 2
T6 construct: made in house; host or cells: E. coli (DH5alpha, BL21 or JM109)
Excerpt: as §1, §2, §3, §4, §5

[7] = target: T7, PDZ protein (GST-PDZ fusion) (Homo sapiens, UniProt Q6P0Q8)
T7 construct: made in house; host or cells: E. coli (DH5alpha, BL21 or JM109)
Excerpt: as §1, §2, §3, §4, §5

[8] = system: PDZ protein (GST-PDZ fusion); conditions: PDZ SHANK, PDZ Domain 1
Excerpt: as §1, §2, §3, §4, §5

T7 sequence (Q6P0Q8 whole entry, the tested form may be a part): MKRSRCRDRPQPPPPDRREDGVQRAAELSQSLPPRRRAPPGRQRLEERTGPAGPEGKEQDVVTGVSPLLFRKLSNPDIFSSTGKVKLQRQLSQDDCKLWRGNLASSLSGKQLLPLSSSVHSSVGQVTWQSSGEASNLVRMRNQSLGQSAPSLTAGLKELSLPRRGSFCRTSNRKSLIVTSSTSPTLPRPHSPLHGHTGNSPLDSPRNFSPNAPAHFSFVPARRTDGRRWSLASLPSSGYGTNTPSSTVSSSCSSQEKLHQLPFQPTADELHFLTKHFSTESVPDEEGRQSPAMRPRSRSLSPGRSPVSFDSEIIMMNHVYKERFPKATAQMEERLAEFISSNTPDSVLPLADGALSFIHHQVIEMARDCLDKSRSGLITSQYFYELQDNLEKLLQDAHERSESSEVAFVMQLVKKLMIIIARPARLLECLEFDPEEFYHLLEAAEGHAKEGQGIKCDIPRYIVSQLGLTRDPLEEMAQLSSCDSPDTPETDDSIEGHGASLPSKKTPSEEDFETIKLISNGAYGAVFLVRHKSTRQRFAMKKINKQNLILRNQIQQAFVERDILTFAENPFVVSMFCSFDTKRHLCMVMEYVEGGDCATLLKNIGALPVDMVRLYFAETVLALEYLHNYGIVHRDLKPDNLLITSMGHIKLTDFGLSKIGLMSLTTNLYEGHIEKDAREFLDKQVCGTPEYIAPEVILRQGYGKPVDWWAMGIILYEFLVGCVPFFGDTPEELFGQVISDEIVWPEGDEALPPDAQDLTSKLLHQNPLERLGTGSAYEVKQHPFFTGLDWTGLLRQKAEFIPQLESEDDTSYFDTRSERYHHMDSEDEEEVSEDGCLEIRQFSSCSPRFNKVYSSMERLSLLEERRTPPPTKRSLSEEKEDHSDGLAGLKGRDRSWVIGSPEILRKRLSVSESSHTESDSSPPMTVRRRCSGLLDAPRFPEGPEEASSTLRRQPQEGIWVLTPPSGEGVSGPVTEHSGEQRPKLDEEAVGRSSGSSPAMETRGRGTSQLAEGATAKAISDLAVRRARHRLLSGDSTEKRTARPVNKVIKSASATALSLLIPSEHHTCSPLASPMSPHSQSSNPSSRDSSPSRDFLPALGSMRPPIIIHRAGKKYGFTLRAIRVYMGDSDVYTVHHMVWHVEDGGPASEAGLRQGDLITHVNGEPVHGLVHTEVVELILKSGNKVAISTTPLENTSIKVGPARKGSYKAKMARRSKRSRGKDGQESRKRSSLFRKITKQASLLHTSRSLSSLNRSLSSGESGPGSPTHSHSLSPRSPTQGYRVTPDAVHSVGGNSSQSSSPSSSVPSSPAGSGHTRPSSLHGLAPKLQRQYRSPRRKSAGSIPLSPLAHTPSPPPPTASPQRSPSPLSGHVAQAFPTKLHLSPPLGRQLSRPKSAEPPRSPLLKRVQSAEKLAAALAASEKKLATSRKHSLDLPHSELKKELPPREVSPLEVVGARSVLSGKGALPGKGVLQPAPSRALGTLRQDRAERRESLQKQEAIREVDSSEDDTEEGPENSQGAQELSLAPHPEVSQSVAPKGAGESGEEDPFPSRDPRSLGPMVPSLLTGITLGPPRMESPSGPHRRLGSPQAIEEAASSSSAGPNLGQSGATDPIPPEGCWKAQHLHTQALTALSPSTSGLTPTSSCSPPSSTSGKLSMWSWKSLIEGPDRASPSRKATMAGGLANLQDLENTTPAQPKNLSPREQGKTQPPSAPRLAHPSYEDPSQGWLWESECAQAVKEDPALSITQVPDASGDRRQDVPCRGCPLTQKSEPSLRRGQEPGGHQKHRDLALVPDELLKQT
T4 sequence (O75970 whole entry, the tested form may be a part): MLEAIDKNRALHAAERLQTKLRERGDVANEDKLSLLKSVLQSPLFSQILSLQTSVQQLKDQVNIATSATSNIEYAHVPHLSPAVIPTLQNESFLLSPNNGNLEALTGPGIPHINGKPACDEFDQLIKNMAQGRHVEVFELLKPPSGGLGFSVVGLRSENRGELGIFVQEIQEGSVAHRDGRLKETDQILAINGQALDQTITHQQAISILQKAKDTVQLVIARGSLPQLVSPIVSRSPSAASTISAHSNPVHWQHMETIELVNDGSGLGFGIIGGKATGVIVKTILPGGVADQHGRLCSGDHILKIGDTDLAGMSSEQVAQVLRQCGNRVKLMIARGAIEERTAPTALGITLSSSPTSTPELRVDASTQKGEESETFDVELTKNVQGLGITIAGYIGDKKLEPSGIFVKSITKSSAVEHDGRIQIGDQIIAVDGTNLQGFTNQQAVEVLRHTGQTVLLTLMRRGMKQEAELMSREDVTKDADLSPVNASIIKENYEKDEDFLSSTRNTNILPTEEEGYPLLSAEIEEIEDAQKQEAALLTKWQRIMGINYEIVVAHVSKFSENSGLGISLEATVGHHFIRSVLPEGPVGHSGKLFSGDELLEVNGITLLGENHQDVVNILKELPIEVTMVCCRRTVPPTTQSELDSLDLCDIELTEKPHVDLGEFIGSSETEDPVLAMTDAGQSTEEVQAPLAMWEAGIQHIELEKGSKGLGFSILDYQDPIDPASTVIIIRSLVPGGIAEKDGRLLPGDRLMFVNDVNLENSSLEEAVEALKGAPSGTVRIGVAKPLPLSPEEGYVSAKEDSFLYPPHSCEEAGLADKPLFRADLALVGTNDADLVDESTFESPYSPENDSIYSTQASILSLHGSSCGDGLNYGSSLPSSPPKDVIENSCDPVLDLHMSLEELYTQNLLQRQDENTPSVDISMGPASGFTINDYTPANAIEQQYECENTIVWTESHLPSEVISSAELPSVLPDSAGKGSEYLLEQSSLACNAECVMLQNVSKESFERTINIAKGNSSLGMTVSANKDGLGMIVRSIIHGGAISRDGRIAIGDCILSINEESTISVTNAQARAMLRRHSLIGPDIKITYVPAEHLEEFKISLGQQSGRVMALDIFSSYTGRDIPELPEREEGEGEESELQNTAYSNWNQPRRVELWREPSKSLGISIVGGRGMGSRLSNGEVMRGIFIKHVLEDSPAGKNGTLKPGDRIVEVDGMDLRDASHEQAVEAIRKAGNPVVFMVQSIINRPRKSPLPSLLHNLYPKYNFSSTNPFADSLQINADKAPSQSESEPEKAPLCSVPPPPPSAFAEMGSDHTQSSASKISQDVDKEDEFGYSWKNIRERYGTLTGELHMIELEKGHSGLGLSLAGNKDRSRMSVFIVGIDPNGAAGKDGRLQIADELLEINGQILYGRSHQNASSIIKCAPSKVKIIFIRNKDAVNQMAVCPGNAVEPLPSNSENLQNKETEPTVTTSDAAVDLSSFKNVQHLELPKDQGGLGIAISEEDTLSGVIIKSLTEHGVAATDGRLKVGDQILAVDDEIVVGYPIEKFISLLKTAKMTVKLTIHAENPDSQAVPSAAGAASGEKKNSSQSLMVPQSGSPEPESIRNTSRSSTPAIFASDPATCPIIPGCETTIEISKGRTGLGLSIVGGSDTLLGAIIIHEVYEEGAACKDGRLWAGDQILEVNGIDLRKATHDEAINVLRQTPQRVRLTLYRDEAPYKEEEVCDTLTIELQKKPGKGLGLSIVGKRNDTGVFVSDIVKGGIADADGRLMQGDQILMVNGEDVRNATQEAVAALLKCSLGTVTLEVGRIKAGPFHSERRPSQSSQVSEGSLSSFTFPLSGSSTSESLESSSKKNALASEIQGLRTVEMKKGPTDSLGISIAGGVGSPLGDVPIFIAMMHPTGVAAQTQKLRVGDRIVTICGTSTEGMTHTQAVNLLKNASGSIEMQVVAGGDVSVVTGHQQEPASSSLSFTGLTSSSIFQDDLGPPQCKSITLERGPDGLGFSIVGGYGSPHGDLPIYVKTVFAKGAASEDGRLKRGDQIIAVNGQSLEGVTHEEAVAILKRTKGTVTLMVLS
T6 sequence (Q12959 whole entry, the tested form may be a part): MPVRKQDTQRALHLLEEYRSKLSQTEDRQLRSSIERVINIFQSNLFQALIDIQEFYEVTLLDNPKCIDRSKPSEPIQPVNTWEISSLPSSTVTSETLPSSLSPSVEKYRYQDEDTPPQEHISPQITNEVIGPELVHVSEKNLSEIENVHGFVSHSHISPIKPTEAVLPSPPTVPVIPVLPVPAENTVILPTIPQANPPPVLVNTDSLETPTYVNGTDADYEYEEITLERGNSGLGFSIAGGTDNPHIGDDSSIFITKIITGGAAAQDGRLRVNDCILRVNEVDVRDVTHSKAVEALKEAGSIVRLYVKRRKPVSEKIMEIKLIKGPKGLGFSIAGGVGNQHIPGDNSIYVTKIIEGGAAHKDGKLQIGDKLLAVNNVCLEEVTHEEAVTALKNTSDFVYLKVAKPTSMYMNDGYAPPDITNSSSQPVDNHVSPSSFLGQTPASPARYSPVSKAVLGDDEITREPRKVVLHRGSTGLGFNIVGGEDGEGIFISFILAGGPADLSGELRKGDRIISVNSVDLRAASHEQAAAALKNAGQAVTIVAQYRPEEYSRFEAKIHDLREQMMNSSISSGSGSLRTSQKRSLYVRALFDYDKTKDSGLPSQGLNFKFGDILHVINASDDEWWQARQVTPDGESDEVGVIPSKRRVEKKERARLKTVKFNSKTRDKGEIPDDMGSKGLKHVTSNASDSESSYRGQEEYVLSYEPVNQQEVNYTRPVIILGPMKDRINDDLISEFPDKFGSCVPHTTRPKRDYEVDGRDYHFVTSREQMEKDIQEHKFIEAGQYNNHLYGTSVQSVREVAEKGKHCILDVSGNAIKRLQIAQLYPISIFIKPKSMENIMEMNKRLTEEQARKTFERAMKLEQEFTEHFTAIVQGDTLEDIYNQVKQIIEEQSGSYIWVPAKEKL

- Classification [1]: 1 (A450 nm 0-1)
Substance: C5AR_HUMAN (Biotin-ESKSFTRSTVDTMAQKTQAV)

- Classification [2]: 1 (A450 nm 0-1)
Substance: DGGARTEDEVQSYPSKHDYV (Biotin-DGGARTEDEVQSYPSKHDYV) [claudin 18]

Substance: ENLELPVNPSSVVSERISSV (Biotin-ENLELPVNPSSVVSERISSV) [serotonin receptor 5-HT-2C]
- Classification [3]: 1 (A450 nm 0-1)
- Classification [4]: 1 (A450 nm 0-1)

- Classification [5]: 1 (A450 nm 0-1)
- Classification [6]: 1 (A450 nm 0-1)
Substance: GGEDFKTTNPSKQFDKNAYV (Biotin-GGEDFKTTNPSKQFDKNAYV) [claudin 10]

- Classification ([7]; PDZ KIAA0807(S), PDZ Domain 1): 1 (A450 nm 0-1)
Substance: IVFIHSFLSAKVTRLGLLA (Biotin-IVFIIHSFLSAKVTRLGLLA) [alpha-1-syntrophin]

- Classification [2]: 4 (A450 nm 3-4)
Substance: KAGYRAPRSYPKSNSSKEYV (Biotin-KAGYRAPRSYPKSNSSKEYV) [claudin 7]

- Classification ([7]; PDZ KIAA0807(S), PDZ Domain 1): 2 (A450 nm 1-2)
- Classification ([7]; PDZ KIAA807, PDZ Domain not given): 1 (A450 nm 0-1)
Substance: KPQIAALKEETEEEVQDTRL (Biotin-KPQIAALKEETEEEVQDTRL)
- Classification [8]: 1 (A450 nm 0-1)

- Classification [2]: 1 (A450 nm 0-1)
Substance: LGYSIPSRSGASGLDKRDYV (Biotin-LGYSIPSRSGASGLDKRDYV) [claudin 9]

— patent US20050282743A1, “Molecular interactions in cells” (Arbor Vita Corporation, priority 2001, published 2005)
